Experimental findings from patent US20120077751 are described below.

The test system of data set [1] is T1, GST-GluR23A (GST-AKEGANVAG).
T1 sequence: AKEGANVAG

The subject of data set [2] is GST back bone (GST) [GST: P08515].
Data set [3] concerns the target GST fusion protein of the GluR2 carboxyl tail (GST-GluR2CT) (UniProt P19491).
In data set [4] the target is GST fusion protein of the GluR1 carboxyl tail (GST-GluR1CT) (UniProt P19490).
Data set [5] relates to GST-GluR23Y (GST-YKEGYNVYG) [GST: P08515].

Chain of GST fusion protein of the GluR2 carboxyl tail (GST-GluR2CT) (P19491 834-883): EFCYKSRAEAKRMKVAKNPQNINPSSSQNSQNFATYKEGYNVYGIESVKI
Chain of GST fusion protein of the GluR1 carboxyl tail (GST-GluR1CT) (P19490 827-907): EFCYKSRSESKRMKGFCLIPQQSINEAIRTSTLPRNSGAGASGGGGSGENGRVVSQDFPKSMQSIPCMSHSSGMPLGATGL

Regarding active recombinant pp60 c-Src, the “in vitro kinase assay, anti-phosphotyrosine immunoblot” value is on record as “Src-mediated phosphorylation was abolished when these tyrosine residues were mutated into alanines” in data set [1]; “GST-GluR2CT, but not GST-GluR1CT or GST alone, is specifically phosphorylated by Src kinase” in data set [2]; “GST-GluR2CT, but not GST-GluR1CT or GST alone, is specifically phosphorylated by Src kinase” in data set [3]; “GST-GluR2CT, but not GST-GluR1CT or GST alone, is specifically phosphorylated by Src kinase” in data set [4]; “the recombinant Src kinase phosphorylated a GST fusion protein containing the nine amino-acid stretch including all three GluR2-unique tyrosine residues” in data set [5].
